Reference: the supplement of paper PMC10567573

B1: CASP6 (parent)
chain: TCADRDNLTRRFSDLGFEVKCFND

Variants of: B1
Assay: protein stability index of a GFP-peptide fusion (GPS, HEK-293T) (PSI 1-6); higher = more stable
Conditions: c terminus: a fixed tail appended
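Further: lentivirally expressed fusions sorted by FACS into six bins by GFP to DsRed ratio, PSI derived from sequencing read proportions per bin multiplied by bin number.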

Q: Which protein stability index does the source give for TCADRDNLTRRFSDLGAEVKCFND here?
A: 3.7

Q: Which protein stability index does the source give for TCADRDNLTRRFSDLGYEVKCFND here?
A: 2.62

Q: Which protein stability index does the source give for TCADRDNLTRRFSDLGMEVKCFND here?
A: 3.58

Q: For TCADRDNLTRRFSDLGGEVKCFND, which protein stability index is on record?
A: 4.34

Q: With TCADRDNLTRRFSDLGSEVKCFND as the variant, how does the protein stability index read?
A: 4.17

Q: Which protein stability index does the source give for TCADRDNLTRRFSDLGQEVKCFND here?
A: 4.29

Q: Which protein stability index does the source give for TCADRDNLTRRFSDLGKEVKCFND here?
A: 3.37

Q: For TCADRDNLTRRFSDLGNEVKCFND, which protein stability index is on record?
A: 4.26

Q: Which protein stability index does the source give for TCADRDNLTRRFSDLGVEVKCFND here?
A: 3.61

Q: For TCADRDNLTRRFSDLGREVKCFND, which protein stability index is on record?
A: 2.95

Q: With TCADRDNLTRRFSDLGIEVKCFND as the variant, how does the protein stability index read?
A: 3.54

Q: Which protein stability index does the source give for TCADRDNLTRRFSDLGDEVKCFND here?
A: 4.8

Q: Which protein stability index does the source give for TCADRDNLTRRFSDLGCEVKCFND here?
A: 3.36

Q: Which protein stability index does the source give for TCADRDNLTRRFSDLGHEVKCFND here?
A: 3.47

Q: With TCADRDNLTRRFSDLGPEVKCFND as the variant, how does the protein stability index read?
A: 4.04

Q: Which protein stability index does the source give for TCADRDNLTRRFSDLGEEVKCFND here?
A: 4.52

Q: For TCADRDNLTRRFSFLGFEVKCFND, which protein stability index is on record?
A: 2.07

Q: Which protein stability index does the source give for TCADRDNLTRRFSHLGFEVKCFND here?
A: 2.4

Q: Which protein stability index does the source give for TCADRDNLTRRFSYLGFEVKCFND here?
A: 2.46

Q: Which protein stability index does the source give for TCADRDNLTRRFSMLGFEVKCFND here?
A: 1.97

Q: With TCADRDNLTRRFSWLGFEVKCFND as the variant, how does the protein stability index read?
A: 1.97

Q: With TCADRDNLTRRFSKLGFEVKCFND as the variant, how does the protein stability index read?
A: 3.36

Q: Which protein stability index does the source give for TCADRDNLTRRFSTLGFEVKCFND here?
A: 2.27

Q: With TCADRDNLTRRFSALGFEVKCFND as the variant, how does the protein stability index read?
A: 3.23

Q: With TCADRDNLTRRFSRLGFEVKCFND as the variant, how does the protein stability index read?
A: 2.45

Q: For TCADRDNLTRRFSLLGFEVKCFND, which protein stability index is on record?
A: 2.5

Q: With TCADRDNLTRRFSELGFEVKCFND as the variant, how does the protein stability index read?
A: 3.34

Q: Which protein stability index does the source give for TCADRDNLTRRFSPLGFEVKCFND here?
A: 2.47

Q: With TCADRDNLTRRFSGLGFEVKCFND as the variant, how does the protein stability index read?
A: 3.46

Q: For TCADRDNLTRRFSILGFEVKCFND, which protein stability index is on record?
A: 2.79

Q: Which protein stability index does the source give for TCADRDNLTRRFSCLGFEVKCFND here?
A: 2.91

Q: With TCADRDNLTRRFSVLGFEVKCFND as the variant, how does the protein stability index read?
A: 2.43

Q: Which protein stability index does the source give for TCADRDNLTRRFSQLGFEVKCFND here?
A: 2.93

Q: Which protein stability index does the source give for TCADRDNLTRRFSNLGFEVKCFND here?
A: 3.8

Q: For TCADRDNLTRRFSSLGFEVKCFND, which protein stability index is on record?
A: 2.46

Q: For TCADRDNLTRRYSDLGFEVKCFND, which protein stability index is on record?
A: 3.45

Q: Which protein stability index does the source give for TCADRDNLTRRISDLGFEVKCFND here?
A: 2.98

Q: For TCADRDNLTRRTSDLGFEVKCFND, which protein stability index is on record?
A: 3.96

Q: Which protein stability index does the source give for TCADRDNLTRRWSDLGFEVKCFND here?
A: 3.1

Q: For TCADRDNLTRRHSDLGFEVKCFND, which protein stability index is on record?
A: 4.07

Q: Which protein stability index does the source give for TCADRDNLTRRQSDLGFEVKCFND here?
A: 3.97

Q: With TCADRDNLTRRCSDLGFEVKCFND as the variant, how does the protein stability index read?
A: 3.08

Q: With TCADRDNLTRRKSDLGFEVKCFND as the variant, how does the protein stability index read?
A: 4.1

Q: Which protein stability index does the source give for TCADRDNLTRRLSDLGFEVKCFND here?
A: 3.33

Q: Which protein stability index does the source give for TCADRDNLTRRMSDLGFEVKCFND here?
A: 3.42

Q: For TCADRDNLTRRRSDLGFEVKCFND, which protein stability index is on record?
A: 3.35

Q: For TCADRDNLTRRESDLGFEVKCFND, which protein stability index is on record?
A: 4.7

Q: For TCADRDNLTRRDSDLGFEVKCFND, which protein stability index is on record?
A: 4.23

Q: Which protein stability index does the source give for TCADRDNLTRRNSDLGFEVKCFND here?
A: 4.35

Q: Which protein stability index does the source give for TCADRDNLTRRPSDLGFEVKCFND here?
A: 4.32

Q: With TCADRDNLTRRSSDLGFEVKCFND as the variant, how does the protein stability index read?
A: 4.08

Q: With TCADRDNLTRRVSDLGFEVKCFND as the variant, how does the protein stability index read?
A: 4.21

Q: Which protein stability index does the source give for TCADRDNLTRRASDLGFEVKCFND here?
A: 4.07

Q: Which protein stability index does the source give for TCADRDNLTRRGSDLGFEVKCFND here?
A: 3.81

Q: For TCADRDNLTRRFSDPGFEVKCFND, which protein stability index is on record?
A: 4.59

Q: For TCADRDNLTRRFSDQGFEVKCFND, which protein stability index is on record?
A: 3.43

Q: With TCADRDNLTRRFSDYGFEVKCFND as the variant, how does the protein stability index read?
A: 3.02

Q: Which protein stability index does the source give for TCADRDNLTRRFSDMGFEVKCFND here?
A: 3.85

Q: Which protein stability index does the source give for TCADRDNLTRRFSDEGFEVKCFND here?
A: 4.57

Q: For TCADRDNLTRRFSDAGFEVKCFND, which protein stability index is on record?
A: 3.16

Q: With TCADRDNLTRRFSDTGFEVKCFND as the variant, how does the protein stability index read?
A: 4.13

Q: With TCADRDNLTRRFSDNGFEVKCFND as the variant, how does the protein stability index read?
A: 3.94

Q: With TCADRDNLTRRFSDWGFEVKCFND as the variant, how does the protein stability index read?
A: 2.75

Q: With TCADRDNLTRRFSDGGFEVKCFND as the variant, how does the protein stability index read?
A: 3.69

Q: For TCADRDNLTRRFSDIGFEVKCFND, which protein stability index is on record?
A: 2.91

Q: Which protein stability index does the source give for TCADRDNLTRRFSDSGFEVKCFND here?
A: 4.02

Q: For TCADRDNLTRRFSDVGFEVKCFND, which protein stability index is on record?
A: 3.15

Q: Which protein stability index does the source give for TCADRDNLTRRFSDHGFEVKCFND here?
A: 3.65

Q: For TCADRDNLTRRFSDFGFEVKCFND, which protein stability index is on record?
A: 3.07

Q: For TCADRDNLTRRFSDKGFEVKCFND, which protein stability index is on record?
A: 4.11

Q: For TCADRDNLTRRFSDRGFEVKCFND, which protein stability index is on record?
A: 3.27

Q: Which protein stability index does the source give for TCADRDNLTRRFSDDGFEVKCFND here?
A: 3.92

Q: With TCADRDNLTRRFSDCGFEVKCFND as the variant, how does the protein stability index read?
A: 2.58

Q: With TCADRDNLTRCFSDLGFEVKCFND as the variant, how does the protein stability index read?
A: 2.66

Q: Which protein stability index does the source give for TCADRDNLTRQFSDLGFEVKCFND here?
A: 3.5

Q: With TCADRDNLTRVFSDLGFEVKCFND as the variant, how does the protein stability index read?
A: 2.76

Q: For TCADRDNLTRIFSDLGFEVKCFND, which protein stability index is on record?
A: 2.47

Q: Which protein stability index does the source give for TCADRDNLTRTFSDLGFEVKCFND here?
A: 3.2

Q: For TCADRDNLTRWFSDLGFEVKCFND, which protein stability index is on record?
A: 1.62

Q: With TCADRDNLTRNFSDLGFEVKCFND as the variant, how does the protein stability index read?
A: 3.76

Q: Which protein stability index does the source give for TCADRDNLTRKFSDLGFEVKCFND here?
A: 3.65

Q: Which protein stability index does the source give for TCADRDNLTRHFSDLGFEVKCFND here?
A: 3.5

Q: Which protein stability index does the source give for TCADRDNLTREFSDLGFEVKCFND here?
A: 4.2

Q: For TCADRDNLTRYFSDLGFEVKCFND, which protein stability index is on record?
A: 2.35

Q: For TCADRDNLTRSFSDLGFEVKCFND, which protein stability index is on record?
A: 3.57

Q: For TCADRDNLTRGFSDLGFEVKCFND, which protein stability index is on record?
A: 3.36

Q: With TCADRDNLTRMFSDLGFEVKCFND as the variant, how does the protein stability index read?
A: 3.79

Q: With TCADRDNLTRAFSDLGFEVKCFND as the variant, how does the protein stability index read?
A: 3.5

Q: For TCADRDNLTRLFSDLGFEVKCFND, which protein stability index is on record?
A: 3.12

Q: Which protein stability index does the source give for TCADRDNLTRPFSDLGFEVKCFND here?
A: 3.68

Q: With TCADRDNLTRFFSDLGFEVKCFND as the variant, how does the protein stability index read?
A: 2.33

Q: For TCADRDNLTRDFSDLGFEVKCFND, which protein stability index is on record?
A: 4.12

Q: Which protein stability index does the source give for TCADRDNLTRRFSDLGFEVCCFND here?
A: 2.75

Q: Which protein stability index does the source give for TCADRDNLTRRFSDLGFEVACFND here?
A: 3.76
